Laboratory results taken from the supplement of paper PMC10126150.
± gives the standard deviation of the averaged measurements.

Tested on: ATP
Test: switch fluorescence ratio, 500 uM ATP over buffer (Cy3 cluster intensity, sum of 5 cycles each) (fold (ratio)); higher = stronger signal-on switching upon ATP binding; sequences stand for … in TCGTCGGCAGCGTCAGATGTGTATAAGAGACAGTTTTTTTTTTTTTTTTTTTTTTTTT…TC
Details: aptamer strand: ATP DNA aptamer (quencher-CACCTGGGGGAGTATTGCGGAGGAAGG + anchor), 100 nM annealed; ATP concentration: 500 uM
In short: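 Cy3-labelled switching-strand clusters on a modified Illumina MiSeq flow-cell were annealed to 100 nM quencher-labelled ATP aptamer and imaged first in selection buffer, then after 15 min with 500 uM ATP at 22 °C. NaOH stripping and re-annealing separated each of five buffer/ATP cycles, and clusters outside 100-1000 RFU were excluded. The fluorescence ratio sums target-cycle Cy3 intensity over buffer-cycle Cy3 intensity per cluster and averages it per switch-domain sequence.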
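Further: ATP exposure 15 min at 22 °C before imaging.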

| Sequence | switch fluorescence ratio |
| --- | --- |
| TGCAGGAATG | 2.17 ± 1.6 |
| AACTATGATG | 0.996 ± 0.03 |
| ATATCCGCTG | 1.52 ± 0.071 |
| AGGGCCTCTT | 0.986 ± 0.028 |
| TATTTAAGGT | 1 ± 0.02 |
| GATTCGGGGA | 0.999 ± 0.014 |
| TTGGGGGTAT | 1.05 ± 0.068 |
| ACTGTTAGGT | 1.036 ± 0.0055 |
| TAGCTTCTCC | 1.34 ± 0.033 |
| GAAATTTATA | 1.05 ± 0.04 |
| GAATATTTTG | 0.994 ± 0.015 |
| GCAGCTGGGT | 1.064 ± 0.0034 |
| TTCTGTGTTT | 1.01 ± 0.037 |
| TTGTCCGCGG | 1.06 ± 0.091 |
| GGTGTTCGTG | 0.985 ± 0.019 |
| AAAAAATTCG | 1.03 ± 0.017 |
| GGGCATAGG | 1.008 ± 0.0014 |
| TTTGACGTGC | 1.02 ± 0.033 |
| GGTAGAATTA | 0.979 ± 0.032 |
| TGGTTGTTGT | 0.96 ± 0.014 |
| CGGAACGCGA | 4.09 ± 0.093 |
| AAGGCTTGAT | 0.9998 ± 0.0081 |
| TGGGGGTCGG | 1.03 ± 0.017 |
| GAGTGAGTAT | 0.9731 ± 0.0071 |
| CGATCCGCGG | 0.942 ± 0.14 |

| Sequence | switch fluorescence ratio |
| --- | --- |
| ATTGTTGTTC | 1.06 ± 0.057 |
| GTTTTTCTTT | 0.988 ± 0.024 |
| GAAGGTGGTG | 0.961 ± 0.032 |
| TCGGCTGTAT | 1.69 ± 0.94 |
| TTTTTCGTAT | 1.04 ± 0.044 |
| GAGACGGGGA | 0.982 ± 0.021 |
| TTCACTGATG | 1.05 ± 0.017 |
| AGCGATAGTA | 1.07 ± 0.019 |
| TCAGCTCCGT | 1.08 ± 0.025 |
| TTTACTAGAT | 1.05 ± 0.012 |
| CCACTTTGGG | 1 ± 0.069 |
| CTTGTAACGG | 0.975 ± 0.01 |
| GCGGTGTTGG | 0.9887 ± 0.006 |
| ATAAATGACG | 1.02 ± 0.037 |
| GGGGCTGAGT | 0.954 ± 0.039 |
| TTGCTTTGTG | 1 ± 0.042 |
| AACTAATCGC | 1.03 ± 0.029 |
| TGGGCTAGAT | 0.998 ± 0.053 |
| TGGGTCATCT | 1.02 ± 0.065 |
| GTGGAAGCTT | 1.01 ± 0.041 |
| AAAAGGGGTG | 1.09 ± 0.025 |
| CCGAACTGAT | 1.13 ± 0.027 |
| GATTGAGAGC | 0.9928 ± 0.005 |
| CATGTCGTTT | 1 ± 0.017 |
| TGGAAAGGGT | 1.06 ± 0.035 |

| Sequence | switch fluorescence ratio |
| --- | --- |
| GTTGGGAGCC | 0.99 ± 0.01 |
| AATTGGGTTT | 0.99 ± 0.023 |
| GCGAGATGAT | 0.977 ± 0.022 |
| CATATCTGAT | 1.01 ± 0.041 |
| TTGGTAAAAT | 0.978 ± 0.041 |
| GGTTCGGCGG | 1.01 ± 0.045 |
| GAATGTATGA | 0.99 ± 0.023 |
| GGATAGTAGG | 0.9956 ± 0.0083 |
| CACTTAAAAG | 1.05 ± 0.13 |
| GAAGAGGGGT | 1.01 ± 0.014 |
| TGTTGTGATT | 0.994 ± 0.023 |
| GTGGAAGCCG | 1.013 ± 0.0034 |
| GCTGTTGTTG | 0.9918 ± 0.0051 |
| TTAGCGGTCA | 1.01 ± 0.021 |
| TCCCCAATAA | 3.11 ± 0.39 |
| TGTATTCAAT | 0.986 ± 0.013 |
| AGAATATCGT | 0.984 ± 0.043 |
| GGTGTATGGG | 1.01 ± 0.014 |
| TATGCTAGTA | 0.992 ± 0.025 |
| TGAGCCTTGG | 0.995 ± 0.017 |
| GAATCCGTTC | 1.07 ± 0.026 |
| GAGGTTGTAG | 0.994 ± 0.021 |
| GGGCGACACG | 1 ± 0.06 |
| CCAACTTTTC | 1.0433 ± 0.00094 |
| TATAAGGTCC | 0.98 ± 0.019 |

| Sequence | switch fluorescence ratio |
| --- | --- |
| TGATTTTCTG | 1.008 ± 0.002 |
| CTGCGGGCCG | 1.004 ± 0.0073 |
| TGGGGGCAGC | 1.02 ± 0.025 |
| CGGGGTTTT | 0.999 ± 0.046 |
| TAGAGGTAGG | 0.979 ± 0.018 |
| GGGTCCGGCG | 0.995 ± 0.034 |
| GCCCTATAGG | 1.01 ± 0.011 |
| GTGGCTAATT | 1 ± 0.015 |
| CCGCTGGTGT | 3.59 ± 0.29 |
| AAAATGTAAG | 1.011 ± 0.0057 |
| AGCGGTTTTC | 0.994 ± 0.033 |
| TGAGAAGCGG | 0.97 ± 0.039 |
| AATGTTTTGA | 0.995 ± 0.016 |
| CAGTAGGGTC | 0.997 ± 0.014 |
| AAGGGCGTCA | 1.007 ± 0.0022 |
| AGGGGATTTG | 0.999 ± 0.03 |
| GGACGTGGGA | 0.9944 ± 0.0036 |
| AGTTAATAAA | 1 ± 0.0019 |
| TGGGTTGAGT | 0.987 ± 0.017 |
| GGGTGGGGCT | 1.01 ± 0.031 |
| GCTTTTGGGG | 1.03 ± 0.087 |
| TAAGAAGTTT | 0.996 ± 0.028 |
| CTTTCTTTGG | 0.99 ± 0.018 |
| ATTGGGTGTT | 1.02 ± 0.029 |
| TCGAATAACT | 2.2 ± 1.7 |

| Sequence | switch fluorescence ratio |
| --- | --- |
| ATTCGTTAGA | 0.999 ± 0.011 |
| TAAGGACAGG | 1.047 ± 0.0049 |
| CATTTGTGGT | 1.02 ± 0.014 |
| AGAGAACCCT | 1.08 ± 0.048 |
| CGCACAGTCA | 1.06 ± 0.023 |
| GGTAAATGGG | 0.957 ± 0.011 |
| TGTTTTTGGT | 0.978 ± 0.016 |
| ATAGAGTTCT | 0.997 ± 0.041 |
| TTCGTGTTCT | 1 ± 0.03 |
| TCGATGCTAG | 1.03 ± 0.065 |
| ATGACATGGG | 1.04 ± 0.025 |
| CAATAGGGGA | 1.01 ± 0.017 |
| ATTCTTACCG | 1.09 ± 0.044 |
| ACAATCCGGG | 1.01 ± 0.032 |
| TTAAATTTGG | 1.01 ± 0.027 |
| GCGGAATAGG | 1.038 ± 0.0062 |
| GAAGTTGGGT | 1.01 ± 0.029 |
| TTGTTTAATT | 0.979 ± 0.022 |
| TTTGGGCGCT | 1.04 ± 0.048 |
| TTTAAAAGAA | 0.995 ± 0.039 |
| AATTCACGTT | 1.17 ± 0.19 |
| TTCTAAAAAT | 1.06 ± 0.023 |
| ATAATCACCT | 1.23 ± 0.019 |
| ACTTATTAAT | 1.03 ± 0.027 |
| TATTGAGGGT | 0.981 ± 0.034 |

| Sequence | switch fluorescence ratio |
| --- | --- |
| GGAAGGGGGC | 0.9707 ± 0.0066 |
| ATATGTATGG | 0.968 ± 0.011 |
| GGGATAGGGA | 1.01 ± 0.045 |
| TGATGGGCGG | 0.9957 ± 0.008 |
| ATAATAGGCG | 0.985 ± 0.0028 |
| AAATTGTTG | 1.022 ± 0.0087 |
| ATTATAAGTG | 0.96 ± 0.016 |
| GGAGTTAAGC | 1.03 ± 0.061 |
| GCTAAAAAGA | 1 ± 0.076 |
| GATTGCCAGG | 1.05 ± 0.035 |
| GTCGGGGTTA | 0.989 ± 0.036 |
| TGTTTCAACT | 0.9843 ± 0.0045 |
| GAAATGAGAT | 0.975 ± 0.01 |
| TATTTACTCG | 1.05 ± 0.073 |
| GTTTTATAGG | 0.965 ± 0.021 |
| AAAAGCGTTA | 0.9962 ± 0.009 |
| TGGATCGTAG | 0.978 ± 0.011 |
| GGTATGCGGT | 0.974 ± 0.027 |
| AAGGGGGACT | 1.04 ± 0.039 |
| GCTCATAGGA | 0.972 ± 0.016 |
| AGGTTTGTA | 1.04 ± 0.016 |
| TGGGGGATGT | 1.01 ± 0.013 |
| CGTAATTTCA | 1.02 ± 0.013 |
| TGCCGGACCG | 1.02 ± 0.033 |
| GCGTTGGAAA | 0.997 ± 0.015 |

| Sequence | switch fluorescence ratio |
| --- | --- |
| TTGCGGGTGA | 1.01 ± 0.059 |
| GATAGGGGGA | 0.984 ± 0.058 |
| ATCAAAAGAT | 0.9811 ± 0.0085 |
| GCGCTCGTAC | 2.27 ± 0.15 |
| TAATAGGCAG | 1.01 ± 0.029 |
| TTTAAGTTTC | 1 ± 0.025 |
| ATGAAAGACC | 1.0427 ± 0.00025 |
| TCGGGGTGTT | 1.001 ± 0.0096 |
| CGAACGGATG | 1.0156 ± 0.00041 |
| TATTAAGTGC | 0.955 ± 0.039 |
| TTAGATAGGA | 0.999 ± 0.01 |
| CTGGCTTTGG | 1.05 ± 0.043 |
| CGGTTGCTTA | 0.987 ± 0.012 |
| TTAGTTGGGT | 1.002 ± 0.008 |
| CAAGTGAAGC | 0.9539 ± 0.005 |
| GGCATTACTG | 1.06 ± 0.025 |
| CGTACGGACC | 1.26 ± 0.046 |
| GTTCGTGATA | 1.05 ± 0.043 |
| CTGGATTAAT | 1.02 ± 0.04 |
| CCGCGGCTTG | 1.12 ± 0.053 |
| TGGAGCAGGG | 1.05 ± 0.036 |
| GCGCGGCTTC | 1.03 ± 0.034 |
| TTTATCGCAG | 0.994 ± 0.039 |
| GCCCGGGCGC | 1 ± 0.014 |
| CACGAGATAA | 1.11 ± 0.079 |

| Sequence | switch fluorescence ratio |
| --- | --- |
| ATGGGTATGT | 1.01 ± 0.043 |
| GCGCGAGTAG | 1.03 ± 0.028 |
| AACCTTTTCA | 1.067 ± 0.0026 |
| TAGATAAGGC | 0.981 ± 0.018 |
| GCCCATTGTG | 1.2 ± 0.072 |
| TTGTGGGGTG | 1.01 ± 0.044 |
| GAATTGGGGG | 1.01 ± 0.03 |
| GCTGGAACTG | 1.06 ± 0.14 |
| GGGAAGGGAT | 0.981 ± 0.031 |
| ATAAGGGGGC | 0.989 ± 0.041 |
| GCTCGAATTA | 1.02 ± 0.016 |
| AGGGGATGCT | 1.01 ± 0.016 |
| TACTGGCTGT | 1.01 ± 0.029 |
| GCTTTGGCTA | 1.02 ± 0.036 |
| GTGTGGGTTC | 0.982 ± 0.012 |
| CGTTTTTGTT | 1 ± 0.025 |
| TTTAGGGCGC | 1.05 ± 0.044 |
| AGTATTACGG | 0.9989 ± 0.0088 |
| GGCTCAGTTT | 0.979 ± 0.026 |
| TTGCTGTTAC | 1.15 ± 0.15 |
| TTCGTGGTGT | 1.03 ± 0.015 |
| AAATTAGCTT | 0.987 ± 0.084 |
| TGGTGGGGCT | 0.994 ± 0.026 |
| CCATGGGGGT | 1.16 ± 0.14 |
| AAGCTTCGGG | 1.06 ± 0.029 |
